Source: patent US20050227289A1 (published 2005)
Numbering of substitutions follows the chain as printed.

T1: human erythropoietin receptor (EpoR) on UT-7/Epo cells (human, UniProt P19235 25-508)
T1 sequence (looked up): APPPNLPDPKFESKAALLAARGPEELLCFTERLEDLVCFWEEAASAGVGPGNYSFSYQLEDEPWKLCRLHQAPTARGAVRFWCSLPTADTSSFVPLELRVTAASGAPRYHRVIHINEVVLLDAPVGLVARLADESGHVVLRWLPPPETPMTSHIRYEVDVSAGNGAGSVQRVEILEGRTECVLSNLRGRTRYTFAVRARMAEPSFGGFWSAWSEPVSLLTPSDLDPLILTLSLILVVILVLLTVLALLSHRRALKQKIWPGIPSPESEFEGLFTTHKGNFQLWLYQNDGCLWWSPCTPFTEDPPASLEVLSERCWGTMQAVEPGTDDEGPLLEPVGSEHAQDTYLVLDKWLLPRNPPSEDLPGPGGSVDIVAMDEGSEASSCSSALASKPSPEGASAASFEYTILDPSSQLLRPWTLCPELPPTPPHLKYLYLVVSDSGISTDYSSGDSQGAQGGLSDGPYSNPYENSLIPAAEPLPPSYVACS

T2: soluble EpoR (EposR), soluble recombinant human erythropoietin receptor (human) (UniProt P19235)
T2 sequence (looked up): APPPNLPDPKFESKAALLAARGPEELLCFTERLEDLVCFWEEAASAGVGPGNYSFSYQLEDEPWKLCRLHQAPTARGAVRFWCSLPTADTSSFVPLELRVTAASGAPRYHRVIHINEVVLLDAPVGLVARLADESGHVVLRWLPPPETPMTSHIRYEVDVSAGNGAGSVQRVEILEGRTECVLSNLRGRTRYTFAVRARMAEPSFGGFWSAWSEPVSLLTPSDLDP

T3: soluble EpoR (EposR), soluble recombinant human erythropoietin receptor (human, UniProt P19235 25-250, limits assumed)
T3 construct: Called only 'soluble EpoR (EposR)'
T3 sequence (looked up): T2 sequence (looked up)

B1: Ab12 IgG2/K (antibody, V domains shown)
VH: QVQLQESGPGLVKPSETLSLTCTVSGASISSYYWSWIRQPPGKGLEWIGYIYYSGSTNYNPSLKSRVTISVDTSKNQFSLKLRSVTAADTAVYYCARERLGIGDYWGQGTLVTVSS
VL: DIQLTQSPSSLSASVGDRVTITCRASQGIRNDLGWYQQKPGKAPKRLIYAASSLQSGVPSRFSGSGSGTEFTLTISSLQPEDFATYYCLQHNTYPPTFGQGTKVEIK
B2: Ab12.120 (antibody, IgG2, V domains shown)
VH: B1 VH with S54E
VL: B1 VL
B3: Ab12.119 (antibody, IgG2, V domains shown)
VH: B1 VH with Y53G
VL: B1 VL
B4: Ab12.123 (antibody, IgG2, V domains shown)
VH: B1 VH with Y52G, S54E
VL: B1 VL
B5: Ab12.118 (antibody, IgG2, V domains shown)
VH: B1 VH with Y52G
VL: B1 VL
B6: Ab12.122 (antibody, IgG2, V domains shown)
VH: B1 VH with Y53G, S54E
VL: B1 VL
B7: Ab12.6 (antibody, V domains shown)
VH: B1 VH with Y52G, Y53G, S54E
VL: B1 VL
B8: Ab12.121 (antibody, IgG2, V domains shown)
VH: B1 VH with Y52G, Y53G
VL: B1 VL
B9: Ab12.56 (antibody, V domains shown)
VH: B1 VH with Y52A, Y53G, S54T
VL: B1 VL
B10: Ab12 41/WT (scFv, part only; not given: display fusion parts and tags, part only)
scFv fusion displayed on yeast, part: GENKVEYAPALMALSQVQLQESGPGLVKPSETLSLTCTVSGASISSYYWSWIRQPPGKGLEWIGYIYYSGSTNYNPSLKSRVTISVDTSKNQFSLKLRSVTAADTAVYYCARERLGIGDYWGQGTLVTVSSGGGGSGGGGSGGGGSDIQLTQSPSSLSASVGDRVTITCRASQGIRNDLGWYQQKPGKAPKRLIYAASSLQSGVPSRFSGSGSGTEFTLTISSLQPEDFATYYCLQHNTYPPTFGQGTKVEIK
B11: Ab12 WT/WT (scFv)
scFv: QVQLQESGPGLVKPSETLSLTCTVSGASISSYYWSWIRQPPGKGLEWIGYIYYSGSTNYNPSLKSRVTISVDTSKNQFSLKLRSVTAADTAVYYCARERLGIGDYWGQGTLVTVSSGGGGSGGGGSGGGGSDIQLTQSPSSLSASVGDRVTITCRASQGIRNDLGWYQQKPGKAPKRLIYAASSLQSGVPSRFSGSGSGTEFTLTISSLQPEDFATYYCLQHNTYPPTFGQGTKVEIK
notes: not shown: Aga2/Xpress display part of pYD1 before the tether, and the C-terminal V5 and His tags
B12: Ab12 41/34 (scFv)
scFv: QVQLQESGPGLVKPSETLSLTCTVSGASISSYYWSWIRQPPGKGLEWIGYIYYSGSTNYNPSLKSRVTISVDTSKNQFSLKLRSVTAADTAVYYCARERLGIGDYWGQGTLVTVSSGHEAAAVMQVQYPASDIQLTQSPSSLSASVGDRVTITCRASQGIRNDLGWYQQKPGKAPKRLIYAASSLQSGVPSRFSGSGSGTEFTLTISSLQPEDFATYYCLQHNTYPPTFGQGTKVEIK
notes: as for B11

biological target: T1, human erythropoietin receptor (EpoR) on …; experiment: cell-based or functional assay

Row | Emax (cell proliferation, absorbance) [absorbance] | Binder
1 | 1.98 | B1
2 | 2 | B2
3 | 2.53 | B3
4 | 2.7 | B4
5 | 2.65 | B5
6 | 2.4 | B6
7 | 2.81 | B7
8 | 2.3 | B8
9 | 2.51 | B9

biological target: T2, soluble EpoR (EposR), soluble recombinant human erythropoietin receptor (human); experiment: equilibrium titration of soluble EpoR on yeast-displayed scFv at 37 C, flow cytometry, detection with MAB307 + anti-mouse RPE

Row | EC50 (read off the curve) [nM] | Kd [nM] | Binder
10 | 6 | 5 | B10

biological target: T3, soluble EpoR (EposR), soluble …; experiment: as above
Excerpt: FIG. 2 is a graph showing equilibrium binding of soluble EpoR with various Ab12 scFv constructs expressed on the surface of yeast cells. In FIG. 2, -▪- represents an Ab12 scFv construct comprising a Gly/Ser linker (WT), […] (SEQ ID NO:1) in both the tether and scFv linker positions, -●- represents an […] comprising linker 41, GENKVEYAPALMALS (SEQ ID NO:2) in the tether position and the Gly/Ser linker (WT) (SEQ ID NO:1) in the scFv linker position, -▴- represents an Ab12 scFv construct comprising linker 41 (SEQ ID NO:2) in the tether position and linker 40, […] (SEQ ID NO:3) in the scFv linker position, and -▾- represents an Ab12 scFv construct comprising linker 41 (SEQ ID NO:2) in the tether position and linker 34, […] (SEQ ID NO:4) in the scFv linker position.
Various single stranded oligonucleotides encoding Ab12 scFvs were co-transformed with a linearized “gapped” vector derived from pYD1 (Invitrogen, Carlsbad, Calif.) into yeast by techniques well known to practitioners in the art. Cell surface protein expression was compared by incubating the transformed yeast with increasing concentrations of soluble EpoR (EposR) at 37° C. (FIG. 2). Bound antigen was detected using a monoclonal antibody to EpoR, MAB307 obtained commercially from R and D Systems (Minneapolis, Minn.) followed by anti-mouse phycoerythrin (PE, Southern Biotech, Birmingham, Ala.). […]

Row | Kd [nM] | Binder
11 | 9 | B11
12 | 8.5 | B12
